Reference: patent publication US9920295B2, “Bioreactor for isolation of rare cells and methods of use” (The Trustees of the University of Pennsylvania, priority 2012, dated 2018)

System: CD34+-derived cells
Assay: Apoptosis by cleaved caspase-3 intracellular flow cytometry and Annexin-V
Assay type: cell-based, human
Conditions: G-CSF 100 ng/ml; CH-223191 500 nM (4n fraction)
Method: Cells were fixed with 4% paraformaldehyde in PBS for 10 min, washed with PBS and resuspended in 0.1% saponin in HBSS (staining medium). The samples were then stained with antibodies against cytoplasmic antigens, including NMM-IIA (Sigma), NMM-IIB, phospho-NMM-IIA and caspase-3 (all from Cell Signaling Technology) for 30 min at room temperature. In some cases, cells were concurrently stained with PE anti-CD34 or anti-human CD38 for subpopulation analysis. Cells were then washed and stained with anti-rabbit or mouse secondary antibodies conjugated with Alexa 647 (Invitrogen) for 30 min, followed by analysis on FACSCalibur.

B1: G-CSF: human recombinant granulocyte colony-stimulating factor (protein, UniProt P09919 31-207, looked up)
Granulocyte …: TPLGPASSLPQSFLLKCLEQVRKIQGDGAALQEKLVSECATYKLCHPEELVLLGHSLGIPWAPLSSCPSQALQLAGCLSQLHSGLFLYQGLLQALEGISPELGPTLDTLQLDVADFATTIWQQMEELGMAPALQPTQGAMPAFASAFQRRAGGVLVASHLQSFLEVSYRVLRHLAQP
viability of untreated CD34+ and CD34− cells: improves the viability
